Data taken from patent publication US20220017574A1 (Janssen / Centocor, published 2022).

Key:
Experiment in all cases: sandwich ELISA: antibody coated at 1 µg/ml, purified F protein titrated (after 4 weeks at 4 °C), detection with biotinylated CR9506
[1] = target: T1, pre-fusion RSV F protein RSV180305 (respiratory syncytial virus subgroup A …, UniProt P12568 27-109; P03420 137-513)
T1 construct: Soluble F ectodomain; also called RSV pre-F (RSV180305)

[2] = target: T2, pre-fusion RSV F protein RSV172527 (respiratory syncytial virus subgroup A …, UniProt P12568 27-109; P03420 137-513)
T2 construct: Soluble F ectodomain
T2 chain 1: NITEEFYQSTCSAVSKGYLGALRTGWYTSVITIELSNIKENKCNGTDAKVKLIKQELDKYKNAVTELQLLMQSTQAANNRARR
T2 chain 2: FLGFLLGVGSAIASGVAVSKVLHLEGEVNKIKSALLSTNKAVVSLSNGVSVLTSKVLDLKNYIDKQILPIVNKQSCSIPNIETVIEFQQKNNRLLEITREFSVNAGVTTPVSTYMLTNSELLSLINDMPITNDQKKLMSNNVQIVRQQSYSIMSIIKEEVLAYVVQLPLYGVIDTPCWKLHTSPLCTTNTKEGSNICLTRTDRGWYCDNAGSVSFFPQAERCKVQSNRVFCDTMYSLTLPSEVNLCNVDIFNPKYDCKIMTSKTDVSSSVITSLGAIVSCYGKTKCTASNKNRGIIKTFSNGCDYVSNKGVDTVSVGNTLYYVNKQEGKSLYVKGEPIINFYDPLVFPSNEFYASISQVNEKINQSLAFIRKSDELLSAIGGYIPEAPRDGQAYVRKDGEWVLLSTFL

[3] = target: T3, control pre-fusion F protein RSV150042 (respiratory syncytial virus subgroup A, UniProt P03420 27-109; P03420 137-513)
T3 construct: Control protein described in WO2017/174568; also called PRPM

Measured: binding result

B1: monoclonal antibody CR9506 (antibody, human IgG1, kappa, V domains shown)
VH: EVQLVQSGAEVKKPGSSVKVSCKASGGTFSRSLITWVRQAPGQGLEWMGEISLVFGSAKNAQKFQGRVTITADESTSTAHMEMISLKHEDTAVYYCAAHQYGSGTHNNFWDESELRFDLWGQGTLVTVSS
VL: DIVMTQSPSSLSASVGDRVTIACRASQSIGTYLNWYQQKPGKAPKLLIYAASSLQSGVPSRFSGSGSGTHFTLAISSLQAEDFATYSCQQSYTIPYTFGQGTKLEIKR
notes: In the ELISA, CR9506 was coated as a capture antibody and also used biotinylated for detection; also called Mab CR9506
binds: [1] | [2] | [3]
